According to patent publication CN115505041A:

Target: 人EphA2 (human EphA2 on cells: 293T-EphA2 stable line and EphA2-positive tumour lines HCT116, HepG2, HCC827, MDA-MB-231) (human) (UniProt P29317)
Assay: FACS on 293T-EphA2 cells, EphrinA1-hFc alone (positive control without hybridoma supernatant), APC anti-human IgG Fc

Chain of UniProt P29317 (P29317 24-976): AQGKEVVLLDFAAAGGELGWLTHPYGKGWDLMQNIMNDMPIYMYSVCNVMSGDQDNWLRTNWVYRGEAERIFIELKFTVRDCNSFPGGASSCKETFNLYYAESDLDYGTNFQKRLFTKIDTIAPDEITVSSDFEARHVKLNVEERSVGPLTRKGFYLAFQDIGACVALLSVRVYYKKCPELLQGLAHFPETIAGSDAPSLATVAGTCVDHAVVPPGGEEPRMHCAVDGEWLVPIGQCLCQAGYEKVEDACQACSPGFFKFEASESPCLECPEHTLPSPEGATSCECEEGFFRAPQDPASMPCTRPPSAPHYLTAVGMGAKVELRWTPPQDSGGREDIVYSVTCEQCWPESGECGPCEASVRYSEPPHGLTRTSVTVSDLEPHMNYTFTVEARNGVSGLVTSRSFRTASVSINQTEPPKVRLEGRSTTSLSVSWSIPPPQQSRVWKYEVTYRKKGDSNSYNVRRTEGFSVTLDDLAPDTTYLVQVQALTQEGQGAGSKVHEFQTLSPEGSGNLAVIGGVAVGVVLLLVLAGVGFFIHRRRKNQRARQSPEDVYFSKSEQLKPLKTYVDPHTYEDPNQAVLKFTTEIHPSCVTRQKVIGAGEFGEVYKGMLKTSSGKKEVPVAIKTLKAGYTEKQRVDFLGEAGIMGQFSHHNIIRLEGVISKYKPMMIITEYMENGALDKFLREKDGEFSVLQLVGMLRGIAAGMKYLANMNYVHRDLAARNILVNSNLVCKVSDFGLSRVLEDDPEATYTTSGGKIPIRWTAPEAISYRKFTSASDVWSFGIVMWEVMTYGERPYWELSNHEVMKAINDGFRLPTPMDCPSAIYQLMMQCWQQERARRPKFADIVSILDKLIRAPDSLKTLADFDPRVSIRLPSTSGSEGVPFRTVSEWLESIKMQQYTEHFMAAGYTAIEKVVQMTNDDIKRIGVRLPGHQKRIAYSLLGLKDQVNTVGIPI

重组EphrinA1-hFc配体蛋白 (recombinant EphrinA1-hFc ligand protein) (Fc fusion)
293T-EphA2细胞结合活性: 228000
